Source: PMC7194074, “A Trichome-Specific, Plastid-Localized Tanacetum cinerariifolium Nudix Protein Hydrolyzes the Natural Pyrethrin Pesticide Biosynthetic Intermediate trans-Chrysanthemyl Diphosphate” (Frontiers in Plant Science, 2020)

Test system: CC(C)=C[C@@H]1[C@@H](COP(=O)(O)OP(=O)(O)O)C1(C)C
Assay: purified protein
Details: 100 mM Tris pH 7.5, 5 mM MgCl2, CPP 0.1 to 5 μM, 5 min, 1 μM enzyme stated for the general reactions

Substance: TcNudix1 (Tanacetum cinerariifolium)
- Km: 0.137 ± 0.05 µM
